Patent US20030060416A1 (IDUN PHARMACEUTICALS, published 2003)

B1: Bik (other, human, UniProt Q13323 1-160, looked up)
chain: MSEVRPLSRDILMETLLYEQLLEPPTMEVLGMTDSEEDLDPMEDFDSLECMEGSDALALRLACIGDEMDVSLRAPRLAQLSEVAMHSLGLAFIYDQTEDIRDVLRSFMDGFTTLKENIMRFWRSPNPGSWVSCEQVLLALLLLLALLLPLLSGGLHLLLK
modifications: 35S-labeled (in vitro translated)
notes: also called human Bik/Nbk; 35S-labeled Bik
B2: mutant Blk-DG59-D60 (Gly59 and Asp60 deleted) (other)
chain: MSEARLMARDVIKTVPHDQVPQPPVASETPSMKEPVRDVDLMECVEGRNQVALRLACIEMDLCLRSPRLVQLPGIAIHRLAVTYSRTGVRGIFRSLIRSLTNLRENIWSWRVLTPGAWVSPDQDPGQLFPMVLLVFLLLGGAWYLQLQ
modifications: 35S-labeled (in vitro translated) in the GST pull-down
notes: Cloned in pFLAG CMV-2 and the pRSC vector; also called M2
B3: murine Blk (Bik-like killer), wild type (other)
chain: MSEARLMARDVIKTVPHDQVPQPPVASETPSMKEPVRDVDLMECVEGRNQVALRLACIGDEMDLCLRSPRLVQLPGIAIHRLAVTYSRTGVRGIFRSLIRSLTNLRENIWSWRVLTPGAWVSPDQDPGQLFPMVLLVFLLLGGAWYLQLQ
modifications: 35S-labeled (in vitro translated in rabbit reticulocyte lysate) in the GST pull-down
notes: Protein of 150 amino acids; Used 35S-labeled from in vitro transcription/translation in the pull-downs, and expressed from pRSC-LacZ in the apoptosis assays; also called 35S-labeled Blk; wild type Blk

Tests used:
Assay in all cases: GST pull-down of 35S-labeled protein on glutathione-Sepharose beads
[1] = target: T1, glutathione S-transferase (GST) control (UniProt P08515 1-218 = GST)
T1 construct: Control protein immobilized on glutathione-Sepharose beads
Description: (§1) After 36 h, extracts are prepared and immunoprecipitated with a monoclonal antibody to the Flag-epitope. The immunoprecipitates (upper panel) and the corresponding cellular lysates (lower panel) are analyzed by SDS-PAGE and immunoblotted with a HRP-conjugated T7-antibody. IP, immunoprecipitates. (C) Mutations in the BH3 domain of Blk abrogate its ability to interact with Bcl-2 and Bcl-xL. 35S-labeled wild type Blk, mutant Blk-DG59 (M1) or mutant Blk-DG59-D60 (M2) (lane 1, input) are precipitated with GST (lane 2), GST-Bcl-2 (lane 3), or GST-Bcl-xL (lane 4) and then analyzed by SDS-PAGE and Coomassie staining to detect the GST fusion proteins (lower panel) and autoradiography to detect the interacting labeled proteins (upper panel). (D) Mutations in the BH3 domain of Blk abrogate its proapoptotic activity. MCF-7 cells are transfected with the indicated plasmids and then assayed for apoptosis as in FIG. 3A.
(§2) Blk binds Bcl-2 and Bcl-xL. All the proapoptotic Bcl-2 family members can heterodimerize with Bcl-2 and Bcl-xL. To determine whether Blk can also bind to Bcl-2 or Bcl-xL, in vivo and in vitro binding studies are performed. Bcl-2 and Bcl-xL are constructed as GST fusion proteins inpGEX-4T-2 and pGEX-2T, respectively, by placing the coding sequence of Bcl-2 or Bcl-XL in frame C-terminal to the GST protein (Pharmacia). GST fusion proteins are expressed in E. coli and purified by affinity chromatography on a glutathione-coupled substrateGlutathione Sepharose 4B (Pharmacia). ³⁵S-labeled (Blk, Bik, Bax) proteins are expressed in vitro using a coupled transcription/translation system in rabbit reticulocyte lysate (TNT Kit; Promega). In vitro protein-protein interactions are carried out according to Boyd et. al. (supra). Briefly, labeled proteins are precleared by mixing with glutathione-coupled Sepharose beads, which are then removed by centrifugation. The supernatants are incubated with GST-Bcl-2, GST-Bcl-xL or GST immobilized on glutathione-coupled Sepharose beads for 2 h at 4° C. After extensive washing, proteins are recovered by boiling the beads in SDS-sample buffer and analyzed on 12% SDS-PAGE.
(§3) ³⁵S-labeled Blk, Bik or Bax are precipitated with glutathione S-transferase (GST), GST-Bcl-2 or GST-Bcl-xL fusion proteins immobilized on glutathione-Sepharose beads (FIG. 5A).

[2] = target: T2, GST-Bcl-xL fusion protein (human, UniProt P08515 1-218 = GST; Q07817 1-233)
T2 construct: Expressed in E. coli and immobilized on Glutathione Sepharose 4B beads
Description: as §1, §2, §3

GST-Bcl-2 fusion protein = target: T3, GST-Bcl-2 fusion protein (human, UniProt P08515 1-218 = GST; P10415 1-239)
T3 construct: Expressed in E. coli and immobilized on Glutathione Sepharose 4B beads
Description: as §1, §2, §3

T1 sequence (P08515 whole entry): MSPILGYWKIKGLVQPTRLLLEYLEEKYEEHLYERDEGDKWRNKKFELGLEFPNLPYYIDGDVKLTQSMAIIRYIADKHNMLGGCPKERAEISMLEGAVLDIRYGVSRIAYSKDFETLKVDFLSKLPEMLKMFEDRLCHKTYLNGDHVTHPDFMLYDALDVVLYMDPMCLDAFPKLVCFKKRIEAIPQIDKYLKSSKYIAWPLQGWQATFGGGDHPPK
T3 sequence (P08515 1-218, tags or fused parts left off): as the sequence (P08515 whole entry) above
T2 sequence (P08515 1-218, tags or fused parts left off): as the sequence (P08515 whole entry) above

| Binder | binding result [1] | binding result [2] | binding result (GST-Bcl-2 fusion protein) |
| --- | --- | --- | --- |
| B1 | no binding | – | – |
| B2 | – | no binding | no binding |
| B3 | no binding | – | – |
